Each binder was assayed against human CD28 (human, UniProt P10747 19-220) (assay: cell-based or functional assay).

Row | Binder | Luciferase assay (EC50) | MLR assay (EC50)
1 | 1h-72 (other) VL: DIQMTQSPSSLSASVGDRVTITCRASRSINHWLDWYQQKPGKAPTLLISGVSWLQSGVPSRFSGSGSGTDFTLTISSLQPEDFATYYCCQPGFRPCTFGQGTKVEIKR | 3400 nM | –
2 | 1h-69 (other) VL: DIQMTQSPSSLSASVGDRVTITCRASQKIGTGLRWYQQKPGKAPKLLIYRASVLQSGVPSRFSGSGSGTDFTLTISSLQPEDFATYYCQQTAFPPYTFGQGTKVEIKR | > 7000 nM | –
3 | 1h-35-7 (other) VL: DIQMTQSPSSLSASVGDRVTITCRASQYIGSALGWYQQKPGKAPKLLIYRASNLQSGVPSRFSGSGYGTGFTLTISSLQPEDFATYYCQQLAIRPFTFGQGTKVEIKR | 79 nM | 270 nM
4 | 1h-75 (other) VL: DIQMTQSPSSLSASVGDRVTITCRASQYIGTRLSWYQQKPGKAPKLLIYNASFLQSGVPSRFSGSGSGTDFTLTISSLQPEDFATYYCQQLALSPLTFGQGTKVEIKR | 5700 nM | –
5 | 1h-35-9 (other) VL: DIQMTQSPSSLSASVGDRVTITCRASQYIGSALGWYQQKPGKAPKLLIYRASNMQSGVPSRFSGSGSGTDFTLTISSLQPEDFATYYCQQLAIRPFTFGQGTKVEIKR | 278 nM | 318 nM
6 | 1h-74 (other) VL: DIQMTQSPSSLSASVGDRVTITCRASQYIGGALSWYQQKPGKAPKLLIYRASRLQSGVPSRFSGSGSGTDFTLTISSLQPEDFATYYCQQVALVPYTFGQGTKVEIKR | 1300 nM | –
7 | 1h-119 (other) VH: EVQLLESGGGLVQPGGSLRLSCAASGFTFTDRCMMWVRQAPGKGLEWVSSIQVEGNHTYYADSVKGRFTISRDNSKNTLYLQMNSLRAEDTAVYYCAKCMTVGPGNSFDYWGQGTLVTVSS | 2800 nM | –
8 | 1h-79-24 (other) VL: DIQMTQSPSSLSASVGDRVTITCRASQPIGHSLGWYQQKPGKAPKLLIYWASTLQSGVPSRFSGSGSGTDFTLTISSLQPEDFATYYCQQMLRTPFAFGQGTKVEIKR | 331 nM | 295 nM
9 | 1h-79-26 (other) VL: DIQMTQSPSSLSASVGDRVTITCRASQPIGHSLGWYQQKPGKAPKLLIYWASMLQSGVPSRFSGSGSGTDFTLTISSLQPEDFATYYCQQMLRTPFSFGQGTKVEIKR | 62 nM | 38 nM
10 | 1h-79-28 (other) VL: DIQMTQSPSSLSASVGDRVTITCRASQPIGHSLGWYQQKPGKAPKLLIYWASMLQSGVPSRFSGSGSGTDFTLTISSLQPEDFATYYCQQMLRTPFMFGQGTKVEIKR | 40 nM | 109 nM
11 | 1h-79-15 (other) VL: DIQMTQSPSSLSASVGDRVTITCRASQPIGHSLGWYQQKPGKAPKLLIYWASTLQSGVPSRFSGSGSGTDFTITISSLQPEDFATYYCQQMLRTPFTFGQGTKVEIKR | 40 nM | 268 nM
12 | 1h-79-32 (other) VL: DIQMTQSPSSLSASVGDRVTITCRASQPIGHSFGWYQQKPGKAPKLLIYWASMLQSGVPSRFSGSGSGTDFTLTISSLQPEDFATYYCQQMLRTPFAFGQGTKVEIKR | 68 nM | –
13 | 1h-79-1520 (other) VL: DIQMTQSPSSLSASVGDRVAITCRASQPIGHSLGWYEQKPGKAPKLLIYWSSVLISGVPSRFSGSGSGTDFTLTISSLQPEDFATYYCQQMLRTPFTFGQGTKVEIKR | 113 nM | 68 nM
14 | 1h-79-802 (other) VL: DIQMTQSPSSLSASVGDRVTITCRASTPIGHSLGWYQQKPGKAPKLLIYWASTLQSGVPSRFSGSGSGTDFTLTISSLQPEDFATYYCQQMLRTPFMFGQGTKVEIKR | 421 nM | 48 nM
15 | 1h-79-806 (other) VL: DIQMTQSPSSLSASVGDRVTITCRASQPIGHSLGWYQQKPGKAPKLLIYWASMLQGGVPSRFSGSGSGTDFTLTISSLQPEDFATYYCQQMLRTPFMFGQGTKVEIKR | 40 nM | 26 nM
16 | 1h-79-1512 (other) VL: DIQMTQSPSSLSASVGDRVTITCRASQPIGHSLGWYQQKPGKAPKLLIYWASVLLHGVPSRFSGSGSGTDFTLTISSLQPEDFATYYCQQMLRTPFTFGQGTKVEIKR | 19 nM | 9 nM
17 | 1h-79-31 (other) VL: DIQMTQSPSSLSASVGDRVTITCRASQPIGHSFGWYQQKPGKAPKLLIYWASMLQSGVPSRFSGSGSGTDFTLTISSLQPEDFATYYCQQMLRTPFMFGQGTKVEIKR | 141 nM | 103 nM

More lines, now with the values ahead:

Row | Luciferase assay (EC50) | MLR assay (EC50) | Binder
18 | 1300 nM | – | 1h-39 (other) VL: DIQMTQSPSSLSASVGDRVTITCRASQYIGTALHWYQQKPGKAPRLLIYLSSNLQSGVPSRFSGSGSGTDFTLTISSLQPEDFATYYCQQSALNPYTFGQGTKVEIKR
19 | 4900 nM | – | 1h-73 (other) VL: DIQMTQSPSSLSASVGDRVTITCRASQYIGTQLSWYQQKPGKAPKLLIYRGSLLQSGVPSRFSGSGSGTDFTLTISSLQPEDFATYYCQQTALSPYTFGQGTKVEIKR
20 | 3500 nM | – | 1h-71 (other) VL: DIQMTQSPSSLSASVGDRVTITCRASRDIGHMLNWYQQKPGKAPKLLIWFGSVLQSGVPSRFSGSGSGTDFTLTISSLQPEDFATYYCVQGRLRPPTFGQGTKVEIKR
21 | 650 nM | 725 nM | 1h-38 (other) VL: DIQMTQSPSSLSASVGDRVTITCRASQPIGSVLAWYQQKPGKAPKLLIYFSSILQSGVPSRFSGSGSGTDFTLTISGLQPEDFATYYCQQALRSPFTFGQGTKVEIKR
22 | 103 nM | – | 1h-79-1505 (other) VL: DIQMTQSPSSLSASVGDRVTITCRASQPIGHSLGWYQQKPGKAPKLLIYWGSWLQSGVPSRFSGSGSGTDFTLTISSLQPEDFATYYCQQMLRTPFTFGQGTKVEIKR
23 | 240 nM | – | 1h-79-8 (other) VL: DIQMTQSPSSLSASVGDRVTITCRASQPIGHSLGWYQQKPGKAPKLLIYWASTLQSGVPSRFSGSGSGTDFTLTISSLQPEDFATYYCQQMLRTPFMFGQGTKVEIKR
24 | 750 nM | – | 1h-79-22 (other) VL: DIQMTQSPSSLSASVGDRVTITCRASQPIGHSLAWYQQKPGKAPKLLIYWASMLQSGVPSRFSGSGSGTDFTLTISSLQPEDFATYYCQQMLRTPFSFGQGTKVEIKR
25 | 1800 nM | – | 1h-79-20 (other) VL: DIQMTQSPSSLSASVGDRVTVTCRASQPIGHSLAWYQQKPGKAPKLLIYWASMLQSGVPSRFSGSGSGTDFTLTISSLQPEDFATYYCQQMLRTPFTFGQGTKVEIKR
26 | 3000 nM | – | 1h-79-21 (other) VL: DIQMTQSPSSLSASVGDRVTITCRASQPIGHSFAWYQQKPGKAPKLLIYWASTLQSGVPSRFSGSGSGTDFTLTISSLQPEDFATYYCQQMLRTPFTFGQGTKVEIKR
27 | 43 nM | 150 nM | 1h-79-29 (other) VL: DIQMTQSPSSLSASVGDRVTITCRASQPIGHSLGWYQQKPGKAPKLLIYWASMLQSGVPSRFSGSGSGTDFTLTISSLQPEDFATYYCQQMLRTPFAFGQGTKVEIKR
28 | 2500 nM | – | 1h-79-17 (other) VL: DIQMTQSPSSLSASVGDRVTITCRASQPIGHSLAWYQQKPGKAPKLLIYWASTLQSGVPSRFSGSGSGTDFTLTISSLQPEDFATYYCQQMLRTPFAFGQGTKVEIKR
29 | 418000 nM | 2100 nM | 1h-79-1 (other) VL: DIQMTQSPSSLSASVGDRVTITCRASQPIGHSFGWYQQKPGKAPKLLIYWASTLQSGVPTRFSGSGSGTDFTLTISSLQPEDFATYYCQQMLRTPFTFGQGTKVEIKR
30 | 166 nM | – | 1h-79-2 (other) VL: DTQMTQSPSSLSASVGDRVTITCRASRPIGHSLGWYQQKPGKAPKLLIYWASMLQSGVPSRFSGSGSGTDFTLTISSLQPEDFATYYCQQMLRTPFTFGQGTKVEIKR
31 | 97 nM | 37 nM | 1h-79-1519 (other) VL: DIQMTQSPSSLSASVGDRVTITCRASQPIGHSLGWYQQKPGKAPKLLIYWASLLLDGVPSRFSGSGSGTDFTLTISSLQPEDFATYYCQQMLRTPFTFGQGTKVEIKR
32 | 224 nM | 126 nM | 1h-79-30 (other) VL: DIQMTQSPSSLSASVGDRVTITCRASQPIGHSFGWYQQKPGKAPKLLIYWASMLQSGVPSRFSGSGSGTDFTLTISSLQPEDFATYYCQQMLRTPFSFGQGTKVEIKR
33 | 162 nM | 260 nM | 1h-36-6 (other) VL: DIQMTQSPSSLSASVGDRVTITCRASRDIALDLLWYQLKPGKAPKLLIKGWSGLQSGVPSRFSGSGSGTDFTLTISSLQPEDFATYFCAQGWGRPVTFGQGTKVEIKR
34 | 6600 nM | – | 1h-70 (other) VL: DIQMTQSPSSLSASVGDRVTITCRASQSIGTGLRWYQQKPGKAPMLLIYRASILQSGVPSRFSGGGSGTDFTLTISSLQPEDFATYYCQQTWYRPYTFGQGTKVEIKR

From US20130109846A1 (published 2013)
